Data reported in FireProtDB (doi:10.1016/j.jmb.2009.07.074).

Conditions: Rhodopseudomonas palustris (strain ATCC BAA-98 / CGA009); pH 6.5; 25 °C; GdnHCl; CD; MES 20 mM; NaCl 40 mM; whole UniProt chain shown

B1: Cytochrome c' wild type, P00149 (protein)
chain: MKLRIATIAGLVVLGSGFAVAQTDVIAQRKAILKQMGEATKPIAAMLKGEAKFDQAVVQKSLAAIADDSKKLPALFPADSKTGGDTAALPKIWEDKAKFDDLFAKLAAAATAAQGTIKDEASLKANIGGVLGNCKSCHDDFRAKKS
  denaturant m value: 5.12 kcal/mol/M
  denaturant midpoint (higher = more stable): 1.71 M
  unfolding free energy: 36.7 kJ/mol
